Literature values in article PMC9776232.

Target: Amyloid beta (Homo sapiens) (UniProt P05067)
Sequence (P05067 672-711): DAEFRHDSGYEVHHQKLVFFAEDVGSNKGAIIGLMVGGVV

Chain of L-PGDS (P41222 23-190): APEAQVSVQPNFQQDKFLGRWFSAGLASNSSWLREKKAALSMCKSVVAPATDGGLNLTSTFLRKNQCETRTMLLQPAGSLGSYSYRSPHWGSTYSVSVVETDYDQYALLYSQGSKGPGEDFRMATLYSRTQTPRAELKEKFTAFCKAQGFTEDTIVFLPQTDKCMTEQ

For L-PGDS (from UniProt P41222), which Kd is on record?
The Kd was 34 nM.
